Test results taken from article PMC10932109, “Solution Structures of Two Different FRP-OCP Complexes as Revealed via SEC-SANS” (International Journal of Molecular Sciences, 2024).
“And” between values parts separate entries of the source, which are not always exact repeats. Equal entries are not always repeated.

Experiments:
[1] = biological target: OCPO (Synechocystis sp. PCC 6803) (UniProt P74102); conditions: cited from earlier work
[2] = biological target: OCPR (Synechocystis sp. PCC 6803) (UniProt P74102); conditions: cited from earlier work
[3] = biological target: the molecule itself; test: SEC + other: SANS; in-line SEC-SANS at D22 (ILL); Superdex 200 Increase 10/300 GL; 25 °C; 250 µL injected at about 5 mg/mL total protein; two fractions (high MW, low MW) analysed separately; stoichiometries assigned from dimensions, DAMMIF shapes and Pepsi-SANS FlexFit models
[4] = biological target: T1, orange carotenoid protein lacking the N-terminal extension (^∆NTEOCP^O) (Synechocystis sp. PCC 6803, UniProt P74102 13-317); test: as above; conditions: both partners purified
T1 construct: glycine left from the human rhinovirus 3C protease site (LEVLFQ/GP) after cleavage; the P of GP is read as Pro13 of OCP; Orange carotenoid protein (OCP), Synechocystis sp; PCC 6803, slr1963, from Pro13 (P-NTLAA...) to the C-terminus; the N-terminal extension is removed with the His-tag by 3C cleavage; Gene optimised for E. coli, vector pRSFDuet-1; also called ^ΔNTEOCP^O; compact mutant of OCP …
T1 sequence: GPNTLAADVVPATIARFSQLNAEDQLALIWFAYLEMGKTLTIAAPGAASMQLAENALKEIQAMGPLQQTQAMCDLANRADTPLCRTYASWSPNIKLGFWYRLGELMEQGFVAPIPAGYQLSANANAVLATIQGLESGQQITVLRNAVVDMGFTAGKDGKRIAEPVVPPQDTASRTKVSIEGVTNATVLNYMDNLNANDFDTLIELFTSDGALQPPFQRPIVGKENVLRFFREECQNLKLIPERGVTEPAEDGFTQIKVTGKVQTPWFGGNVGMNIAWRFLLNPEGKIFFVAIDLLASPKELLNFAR

With FRP (from UniProt P74103) as the molecule, how does the Kd [1] read?
The Kd was 35 µM.

What about the Kd [2] of the same molecule?
The Kd was 3 µM.

B1: fluorescence recovery protein (FRP), wild type (natural protein, Synechocystis sp. PCC 6803)
chain: LQTAEAPWSQAETQSAHALFRKAYQRELDGLLATVQAQASQITQIDDLWKLHDFLSAKRHEIDGKYDDRQSVIIFVFAQLLKEGLVQAEELTFLAADKQSKIKALARL
notes: Fluorescence recovery protein (FRP), Synechocystis sp; PCC 6803, slr1964, wild type; also called wild-type FRP; dimeric FRP; source: E. coli, purified (Superdex 200 Increase 10/300, phosphate-buffered saline)
Which results are given for B1?
binding result [3]: binds; stoichiometry N [4]: 2 FRP per ^∆NTEOCP^O (2:1 complex, low MW fraction) and 1 FRP per ^∆NTEOCP^O (2:2 complex, high MW fraction)
